Source: publication PMC5725467, “Elongated Hypocotyl 5-Homolog (HYH) Negatively Regulates Expression of the Ambient Temperature-Responsive MicroRNA Gene MIR169”

Legend:
[1] = biological target: T1, HYH.2-His (HYH splice isoform 2) (Arabidopsis thaliana, UniProt Q8W191 1-149); test: competition; 100x, 400x, 1600x molar excess over labeled N1; gradual decrease of shift; EMSA: LightShift Chemiluminescent EMSA Kit (manufacturer's instructions), 100 ng HYH.2-His, room temperature 30 min, 8% native polyacrylamide gel; buffer, salt; conditions: protein: recombinant; tags: His (pET28a+); chain copies: 2; label: none; blunt
T1 sequence: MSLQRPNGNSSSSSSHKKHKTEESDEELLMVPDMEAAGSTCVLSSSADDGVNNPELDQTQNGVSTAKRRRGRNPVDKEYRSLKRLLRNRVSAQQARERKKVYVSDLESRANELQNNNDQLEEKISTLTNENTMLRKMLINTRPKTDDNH

[2] = biological target: T1, HYH.2-His (HYH splice isoform 2); test: EMSA; 100 ng protein; EMSA: LightShift Chemiluminescent EMSA Kit (manufacturer's instructions), 100 ng HYH.2-His, room temperature 30 min, 8% native polyacrylamide gel; buffer, salt; conditions: protein: recombinant; tags: His (pET28a+); chain copies: 2; label: 5'-biotin; blunt

B1: miR169a G-box-like, unlabeled competitor (dsDNA)
DNA 1: TGTACGGCCACGCAAAAGTGACCTAC
DNA 2: GTAGGTCACTTTTGCGTGGCCGTACA
binding result [1]: binds

B2: miR169a NC1 (dsDNA)
DNA 1: ATCTTCTGTTTAACAACATATG
DNA 2: CATATGTTGTTAAACAGAAGAT
binding result [2]: no binding

B3: miR169a G-box-like (G) (dsDNA)
DNA 1: TGTACGGCCACGCAAAAGTGACCTAC
DNA 2: GTAGGTCACTTTTGCGTGGCCGTACA
binding result [2]: binds
